Measurements taken from publication PMC3549490.
“And” between values parts separate entries of the source, which are not always exact repeats. Equal values may be shown once.

Legend:
[1] = biological target: UNC-45 (C. elegans), full-length recombinant protein (C. elegans); assay: ITC
[2] = biological target: UNC-45 Q452pBpa (wild-type Q452B) (C. elegans); assay: cross-linking

stoichiometry N [2]	Substance	Kd [1]
	Hsp90 (DAF-21 in C. elegans), full-length recombinant protein (from UniProt Q18688 1-702) (natural protein)	31 µM
2 and > 5	UNC-45 Q452pBpa (wild-type Q452B) (natural protein)	
